Measurements: patent US12215162B2, “BAFF-R targeted chimeric antigen receptor-modified T-cells and uses thereof” (CITY OF HOPE, priority 2016, dated 2025)
Positions count from the first letter of the chain named.

B1: Humanized HC1 + LC2: humanized C90 variant, heavy chain variant 1 with light chain variant 2 (antibody, V domains shown)
VH: QVQLQESGPGLVKPSQTLSLTCTVSGDSITSGYWNWIRQHPGKGLEYIGYISYSGSTYYNPSLKSRVTISRDTSKNQFSLKLSSVTAADTAVYYCASPNYPFYAMDYWGQGTLVTVSS
VL: DIVLTQSPATLSLSPGERATLSCRASESVDNYGISFMNWFQQKPGQAPRLLIYAASNRATGIPARFSGSGSGTDFTLTISSLEPEDFAVYYCQQSKEVPWTFGGGTKVEIKRTV
B2: Humanized HC2 + LC1 (antibody, V domains shown)
VH: B1 VH with Q1E, F78Y
VL: B1 VL with D1E, M37L
B3: Humanized HC1 + LC1 (antibody, V domains shown)
VH: B1 VH
VL: B1 VL with D1E, M37L
B4: Humanized HC3 + LC3: humanized C90 variant, heavy chain variant 3 with light chain variant 3 (antibody, V domains shown)
VH: B1 VH with Q1E, Q16E, T23S, H40P, F78Y, K81R, V92L, L113R
VL: DIVMTQSPSSLSASVGDRVTITCRASESVDNYGISFMNWFQQKPGKAPKLLIYAASNLGSGVPSRFSGSGSGTDFTLTISSLQPEDFATYYCQQSKEVPWTFGQGTKVEIKRTV
B5: Humanized HC3 + LC2: humanized C90 variant, heavy chain variant 3 with light chain variant 2 (antibody, V domains shown)
VH: B1 VH with Q1E, Q16E, T23S, H40P, F78Y, K81R, V92L, L113R
VL: B1 VL
B6: Humanized HC3 + LC1 (antibody, V domains shown)
VH: B1 VH with Q1E, Q16E, T23S, H40P, F78Y, K81R, V92L, L113R
VL: B1 VL with D1E, M37L
B7: Humanized HC1 + LC3: humanized C90 variant, heavy chain variant 1 with light chain variant 3 (antibody, V domains shown)
VH: B1 VH
VL: B4 VL

The molecules below were run against T1, recombinant extracellular domain of human BAFF-R (Homo sapiens, UniProt Q96RJ3) (assay: Biacore analysis of binding affinity of humanized BAFF-R antibody variants).
T1 construct: The antigen was commercial, recombinant extracellular domain of human BAFF-R; purchased
Description: The chimeric antibody, clone 90, was humanized while retaining its binding specificity and cytotoxic effects. Through computational analysis of the CDRs and predicted structure, three variants of the heavy and three variants of the light chain were produced with varying degrees of likeness to human antibodies. A total of nine combinational variants was constructed from the humanized heavy and light chains.
The chimeric anti-BAFF-R antibody C90 was humanized with several variants. The humanization process took into consideration and analysis of the variable region and specifically the CDRs of the chimeric antibody. From there, three variants for each heavy and light chain was developed with varying degrees of human-likeness ranging from 1 the most human to 3 the most conservative to the chimeric. The variants were combined to produce 9 variants. Biacore analysis was performed on each variant as well as the chimeric parental C90 to determine their equilibrium dissociation constant KD. The antigen was commercial, recombinant extracellular domain of human BAFF-R.
Molecule B1 has a kdis of 0.0023 s⁻¹ and a kon of 620000 M⁻¹ s⁻¹.
B2 showed a kdis of 0.002 s⁻¹ and a kon of 770000 M⁻¹ s⁻¹.
B3 showed a kdis of 0.0024 s⁻¹ and a kon of 610000 M⁻¹ s⁻¹.
B4 was tested, and the kdis was 0.0023 s⁻¹ and the kon was 680000 M⁻¹ s⁻¹.
Molecule B5 has a kdis of 0.0037 s⁻¹ and a kon of 1.2e+06 M⁻¹ s⁻¹.
Molecule B6 has a kdis of 0.0031 s⁻¹ and a kon of 820000 M⁻¹ s⁻¹.
Work on B7 yielded a kdis of 0.0021 s⁻¹ and a kon of 410000 M⁻¹ s⁻¹.
